In patent US9605064B2, “Methods and compositions for treatment of skin disorders” (AbbVie Biotechnology Ltd, priority 2006, dated 2017):
Several values for one entry are separate records, joined by “and”; a condition that tells them apart may be missing. Equal entries are not always repeated.

Key:
[1] = system: patients with severe psoriasis who were non-responders to high-dosage etanercept; test: DLQI, open-label adalimumab in non-responders to high-dosage etanercept; assay type: in vivo, human
Procedure: Details on clinical course and adverse events were recorded, along with measurements of PASI and Dermatology Life Quality Index (DLQI) at baseline and Weeks 2, 4, 8, and 12.
At each clinical visit PASI, DLQI, and percentage body surface area (% BSA) affected were assessed and recorded. In addition, patients received medical assessments together with monitoring laboratory investigations (FIG. 11).

[2] = system: patients with moderate to severe chronic plaque psoriasis; test: Adverse events, Phase II trial with 48-week extension; conditions: for patients with serious adverse events (SAEs): 60-week trial
Description: The study was a randomized, double-blind, placebo-controlled, multi-center clinical trial, wherein patients were randomized to one of three treatment groups. The three treatment groups consisted of the following: • 1. […] Inclusion criteria included a diagnosis of moderate to severe chronic plaque psoriasis≧1 year prior to entry, a psoriasis-affected body surface area (BSA)>5%, and no previous use of TNF-antagonist therapy.
Inclusion criteria for the study included the following parameters: ≧18 years of age; moderate to severe chronic plaque psoriasis≧1 year; and affected BSA≧5%. […] Efficacy outcome measures included PASI and PGA.
Inclusion criteria included patients being 18 years of age; having moderate to severe chronic plaque psoriasis≧1 year; and affected BSA≧5%. Exclusion criteria included prior TNF-antagonist therapy and discontinuation of other systemic psoriasis therapies. Efficacy outcome measures which were used included PASI, PGA, DLQI.
Inclusion criteria included: • ≧18 years of age • Moderate to severe chronic plaque psoriasis 1 year • Affected BSA≧5% Exclusion criteria included: • Prior TNF-antagonist therapy • Discontinuation of other systemic psoriasis therapies Efficacy outcome was measured using PASI and DLQI responses/scores.

[3] = Week 0-12, 40 mg weekly (N = 50)
[4] = Week 0-60, 40 mg weekly (N = 50)
[5] = Week 0-60, Placebo/Adalimumab 40 mg eow (N = 52)
[6] = Week 12-60, 40 mg weekly (n = 50)
[7] = Week 12-60, Placebo/Adalimumab 40 mg eow + Adalimumab 40 mg eow (n = 92)
[8] = Weeks 0-12, 40 mg weekly (n = 50)
[9] = Weeks 0-12, 40 mg weekly, prior biologic use (n = 9)
[10] = Weeks 12-60, 40 mg weekly (n = 50)
[11] = Weeks 12-60, 40 mg weekly, no prior use (n = 24)
[12] = Weeks 12-60, 40 mg weekly, prior biologic use (n = 7)
[13] = Weeks 12-60, 40 mg weekly, prior systemic use (n = 21)
[14] = Weeks 12-60, Placebo/Adalimumab 40 mg eow + Adalimumab 40 mg eow (n = 92)
[15] = Weeks 12-60, placebo/adalimumab 40 mg eow + adalimumab 40 mg eow, no prior use (n = 47)
[16] = Weeks 12-60, placebo/adalimumab 40 mg eow + adalimumab 40 mg eow, prior biologic use (n = 16)
[17] = Weeks 12-60, placebo/adalimumab 40 mg eow + adalimumab 40 mg eow, prior systemic use (n = 35)
[18] = all patients, Weeks 0-12, 40 mg eow (N = 45)
[19] = all patients, Weeks 0-12, 40 mg weekly (N = 50)
[20] = all patients, Weeks 12-60, 40 mg weekly (n = 50)
[21] = all patients, Weeks 12-60, placebo/adalimumab 40 mg eow + adalimumab 40 mg eow (N = 92)
[22] = baseline PASI ≧10 and DLQI >10, Weeks 0-12, 40 mg eow (N = 26)
[23] = baseline PASI ≧10 and DLQI >10, Weeks 0-12, 40 mg weekly (N = 23)
[24] = baseline PASI ≧10 and DLQI >10, Weeks 12-60, 40 mg weekly (N = 23)
[25] = baseline PASI ≧10 and DLQI >10, Weeks 12-60, placebo/adalimumab 40 mg eow + adalimumab 40 mg eow (N = 41)
[26] = weeks 12-60, 40 mg weekly (N = 50)
[27] = weeks 12-60, placebo/adalimumab 40 mg eow + adalimumab 40 mg eow (N = 92)

Q: What does the source list for “Adalimumab: a human anti-TNF mAb, described in U.S. Pat. No. 6,090,382 as D2E7 (HUMIRA, Abbott Laboratories)”?
A: DLQI ([1]; Week 2, individual patients 1-5 (c1-c5), weekly adalimumab): 17 and 10 and 30 and 9 and 5; DLQI ([1]; Week 4, individual patients 1-5 (c1-c5), weekly adalimumab): 16 and 5 and 28 and 4 and 7; DLQI ([1]; Week 8, individual patients 1-5 (c1-c5), weekly adalimumab): 15 and 3 and 0 and 9; DLQI ([1]; Week 12, individual patients 1-5 (c1-c5), weekly adalimumab): 6 (2×) and 1 and 26 and 2; mean decrease in DLQI score ([1]; five patients, Week 12): 8.8; % Improvement in DLQI from baseline to Week 12 ([1]; individual patients 1-5 (c1-c5), weekly adalimumab): 68% and 91% and 13% and 82% and 57%; Withdrawals: Abnormal lab value, number of patients ([2]; Week 0-12, 40 mg eow (N = 45)): 0; Withdrawals: Adverse events, number of patients ([2]; Week 0-12, 40 mg eow (N = 45)): 2; Withdrawals: Lack of Efficacy, number of patients ([2]; Week 0-12, 40 mg eow (N = 45)): 0; Withdrawals: Abnormal lab value, number of patients [2, 3]: 1; Withdrawals: Adverse events, number of patients [2, 3]: 2; Withdrawals: Lack of Efficacy, number of patients [2, 3]: 0; Withdrawals: Abnormal lab value, number of patients ([2]; Week 0-60, 40 mg eow (N = 45)): 0; Withdrawals: Adverse events, number of patients ([2]; Week 0-60, 40 mg eow (N = 45)): 4; Withdrawals: Lack of Efficacy, number of patients ([2]; Week 0-60, 40 mg eow (N = 45)): 6; Withdrawals: Abnormal lab value, number of patients [2, 4]: 1; Withdrawals: Adverse events, number of patients [2, 4]: 8; Withdrawals: Lack of Efficacy, number of patients [2, 4]: 4; Withdrawals: Abnormal lab value, number of patients [2, 5]: 0; Withdrawals: Adverse events, number of patients [2, 5]: 2; Withdrawals: Lack of Efficacy, number of patients [2, 5]: 6; Back pain, number of patients [2, 6]: 4 n; Back pain, percent of patients [2, 6]: (8.0) %; Blood creatine phosphokinase increased, number of patients [2, 6]: 2 n; Blood creatine phosphokinase increased, percent of patients [2, 6]: (4.0) %; Blood triglycerides increased, number of patients [2, 6]: 2 n; Blood triglycerides increased, percent of patients [2, 6]: (4.0) %; Headache, number of patients [2, 6]: 6 n; Headache, percent of patients [2, 6]: (12.0) %; Muscle strain, number of patients [2, 6]: 4 n; Muscle strain, percent of patients [2, 6]: (8.0) %; Nasopharyngitis, number of patients [2, 6]: 6 n; Nasopharyngitis, percent of patients [2, 6]: (12.0) %; Skin papilloma, number of patients [2, 6]: 5 n; Skin papilloma, percent of patients [2, 6]: (10.0) %; Upper Respiratory Infection, Not otherwise specified, number of patients [2, 6]: 7 n; Upper Respiratory Infection, Not otherwise specified, percent of patients [2, 6]: (14.0) %; Upper Respiratory Infection, Viral not otherwise specified, number of patients [2, 6]: 3 n; Upper Respiratory Infection, Viral not otherwise specified, percent of patients [2, 6]: (6.0) %; Urticaria, number of patients [2, 6]: 3 n; Urticaria, percent of patients [2, 6]: (6.0) %; Back pain [2, 7]: 4 (4.3) n (%); Blood creatine phosphokinase increased [2, 7]: 5 (5.4) n (%); Blood triglycerides increased [2, 7]: 7 (7.6) n (%); Headache [2, 7]: 3 (3.3) n (%); Muscle strain [2, 7]: 1 (1.1) n (%); Nasopharyngitis [2, 7]: 13 (14.1) n (%); Skin papilloma [2, 7]: 3 (3.3) n (%); Upper Respiratory Infection, Viral not otherwise specified [2, 7]: 4 (4.3) n (%); Urticaria [2, 7]: 0 (0.0) n (%); Adverse Events Leading to Withdrawal ([2]; Weeks 0-12, 40 mg eow (n = 45)): 2 (4.4) n (%); Any Adverse Event ([2]; Weeks 0-12, 40 mg eow (n = 45)): 28 (62.2) n (%); Serious Adverse Events ([2]; Weeks 0-12, 40 mg eow (n = 45)): 1 (2.2 n (%); Adverse Events Leading to Withdrawal [2, 8]: 3 (6.0) n (%); Any Adverse Event [2, 8]: 39 (78.0) n (%); Serious Adverse Events [2, 8]: 4 (8.0) n (%); AE's→Withdrawal [2, 9]: 2 (22) n (%); Any AE [2, 9]: 6 (67) n (%); Serious AE [2, 9]: 2 (22) n (%); Adverse Events Leading to Withdrawal [2, 10]: 5 (10.0) n (%); Any Adverse Event [2, 10]: 39 (78.0) n (%); Serious Adverse Events [2, 10]: 7 (14.0) n (%); AE's→Withdrawal [2, 11]: (8) %; AE's→Withdrawal, number of patients [2, 11]: 2; Any AE [2, 11]: (79) %; Any AE, number of patients [2, 11]: 19; Serious AE [2, 11]: (17) %; Serious AE, number of patients [2, 11]: 4; AE's→Withdrawal [2, 12]: (0) %; AE's→Withdrawal, number of patients [2, 12]: 0; Any AE [2, 12]: (86) %; Any AE, number of patients [2, 12]: 6; Serious AE [2, 12]: (0) %; Serious AE, number of patients [2, 12]: 0; AE's→Withdrawal [2, 13]: (14) %; AE's→Withdrawal, number of patients [2, 13]: 3; Any AE [2, 13]: (81) %; Any AE, number of patients [2, 13]: 17; Serious AE [2, 13]: (10) %; Serious AE, number of patients [2, 13]: 2; Adverse Events Leading to Withdrawal [2, 14]: 3 (3.3) n (%); Any Adverse Event [2, 14]: 72 (78.3) n (%); Serious Adverse Events [2, 14]: 2 (2.2) n (%); AE's→Withdrawal [2, 15]: (2) %; AE's→Withdrawal, number of patients [2, 15]: 1; Any AE [2, 15]: (79) %; Any AE, number of patients [2, 15]: 37; Serious AE [2, 15]: (0) %; Serious AE, number of patients [2, 15]: 0; AE's→Withdrawal [2, 16]: (6) %; AE's→Withdrawal, number of patients [2, 16]: 1; Any AE [2, 16]: (75) %; Any AE, number of patients [2, 16]: 12; Serious AE [2, 16]: (13) %; Serious AE, number of patients [2, 16]: 2; AE's→Withdrawal [2, 17]: (6) %; AE's→Withdrawal, number of patients [2, 17]: 2; Any AE [2, 17]: (80) %; Any AE, number of patients [2, 17]: 28; Serious AE [2, 17]: (6) %; Serious AE, number of patients [2, 17]: 2; patients who withdrew due to adverse events ([2]; Weeks 12-60, range across treatment groups): 3-10%; AEs leading to withdrawal [2, 18]: 2 (4) n (%) and 2 (4.4) n (%); Any AE [2, 18]: 28 (62) n (%) and 28 (62.2) n (%); Serious AEs [2, 18]: 1 (2) n (%) and 1 (2.2) n (%); AEs leading to withdrawal [2, 19]: 3 (6) n (%); Any AE [2, 19]: 39 (78) n (%); Serious AEs [2, 19]: 4 (8) n (%); AEs leading to withdrawal [2, 20]: 5 (10) n (%); Any AE [2, 20]: 39 (78) n (%); Serious AEs [2, 20]: 7 (14) n (%); AEs leading to withdrawal [2, 21]: 3 (3) n (%) and 3 (3.3) n (%); Any AE [2, 21]: 72 (78) n (%) and 72 (87.3) n (%); Serious AEs [2, 21]: 2 (2) n (%) and 2 (2.2) n (%); AEs leading to withdrawal [2, 22]: 0 (0) n (%); Any AE [2, 22]: 16 (62) n (%); Serious AEs [2, 22]: 0 (0) n (%); AEs leading to withdrawal [2, 23]: 1 (4) n (%); Any AE [2, 23]: 19 (83) n (%); Serious AEs [2, 23]: 2 (9) n (%); AEs leading to withdrawal [2, 24]: 0 (0) n (%); Any AE [2, 24]: 11 (48) n (%); Serious AEs [2, 24]: 0 (0) n (%); AEs leading to withdrawal [2, 25]: 2 (5) n (%); Any AE [2, 25]: 23 (56) n (%); Serious AEs [2, 25]: 1 (2) n (%); Serious Adverse Events ([2]; dosage escalation group): no serious adverse events were observed; withdrew from the study due to adverse events ([2]; dosage escalation group): two others; Serious Adverse Events ([2]; dosage escalation group, listed as adalimumab): One patient; patients who had adverse events ([2]; patients with PASI 75-99 and DLQI=0): 80%; patients who had adverse events ([2]; patients with PASI 75-99 and DLQI>0): 91%; patients who had adverse events ([2]; patients with PASI 100 and DLQI=0): 91%; patients who had adverse events ([2]; patients with PASI 100 and DLQI>0): 50%; patients with serious adverse events (SAEs) ([2]; prior-biologic patients): 4 patients; patients with serious adverse events (SAEs) ([2]; prior-systemic patients): 7 patients; Back pain, number of patients [2, 26]: 4; Back pain, percentage (in parentheses) [2, 26]: (8.0); Blood CPK increased, number of patients [2, 26]: 2; Blood CPK increased, percentage (in parentheses) [2, 26]: (4.0); Blood TG increased, number of patients [2, 26]: 2; Blood TG increased, percentage (in parentheses) [2, 26]: (4.0); Headache, number of patients [2, 26]: 6; Headache, percentage (in parentheses) [2, 26]: (12.0); Muscle strain, number of patients [2, 26]: 4; Muscle strain, percentage (in parentheses) [2, 26]: (8.0); Nasopharyngitis, number of patients [2, 26]: 6; Nasopharyngitis, percentage (in parentheses) [2, 26]: (12.0); Skin papilloma, number of patients [2, 26]: 5; Skin papilloma, percentage (in parentheses) [2, 26]: (10.0); URI, NOS, number of patients [2, 26]: 7; URI, NOS, percentage (in parentheses) [2, 26]: (14.0); URI, viral NOS, number of patients [2, 26]: 3; URI, viral NOS, percentage (in parentheses) [2, 26]: (6.0); Urticari, number of patients [2, 26]: 3; Urticari, percentage (in parentheses) [2, 26]: (6.0); Back pain, number (percentage in parentheses) [2, 27]: 4 (4.3); Blood CPK increased, number (percentage in parentheses) [2, 27]: 5 (5.4); Blood TG increased, number (percentage in parentheses) [2, 27]: 7 (7.6); Headache, number (percentage in parentheses) [2, 27]: 3 (3.3); Muscle strain, number (percentage in parentheses) [2, 27]: 1 (1.1); Nasopharyngitis, number (percentage in parentheses) [2, 27]: 13 (14.1); Skin papilloma, number (percentage in parentheses) [2, 27]: 3 (3.3); URI, NOS, number (percentage in parentheses) [2, 27]: 9 (9.8); URI, viral NOS, number (percentage in parentheses) [2, 27]: 4 (4.3); Urticari, number (percentage in parentheses) [2, 27]: 0 (0.0); patients with serious adverse events (SAEs) ([2]; without recent prior systemic or biologic therapy): 5 patients
